T1: digit-removed BMP-2 (Homo sapiens (Human), UniProt P12643, 125I label by the chloramine-T method)
T1 sequence: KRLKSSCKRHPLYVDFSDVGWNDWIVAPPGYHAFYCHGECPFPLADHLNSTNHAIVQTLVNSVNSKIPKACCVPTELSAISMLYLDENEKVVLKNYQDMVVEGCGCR

T2: bone morphogenetic protein 2 (Homo sapiens (Human), UniProt P12643)
T2 sequence: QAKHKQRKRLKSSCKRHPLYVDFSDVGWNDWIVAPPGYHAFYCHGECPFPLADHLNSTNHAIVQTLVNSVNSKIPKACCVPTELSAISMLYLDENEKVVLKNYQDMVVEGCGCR

B1: BMP receptor kinase protein-1 (receptor)
chain: QNLDSMLHGTGMKSDLDQKKPENGVTLAPEDTLPFLKCYCSGHCPDDAINNTCITNGHCFAIIEEDDQGETTLTSGCMKYEGSDFQCKDSPKAQLRRTIECCRTNLCNQYLQPTLPPVVIGPFFDGSIRWLVVLISMAVCIVAMIIFSSCFCYKHYCKSISSRGRYNRDLEQDEAFIPVGESLKDLIDQSQSSGSGSGLPLLVQRTIAKQIQMVRQVGKGRYGEVWMGKWRGEKVAVKVFFTTEEASWFRETEIYQTVLMRHENILGFIAADIKGTGSWTQLYLITDYHENGSLYDFLKCATLDTRALLKLAYSAACGLCHLHTEIYGTQGKPAIAHRDLKSKNILIKKNGSCCIADLGLAVKFNSDTNEVDIPLNTRVGTKRYMAPEVLDESLNKNHFQPYIMADIYSFGLIIWEMARRCITGGIVEEYQLPYYNMVPSDPSYEDMREVVCVKRLRPIVSNRWNSDECLRAVLKLMSECWAHNPASRLTALRIKKTLAKMVESQDVKI
B2: bone morphogenetic protein 4 (ligand)
chain: SPKHHSQRARKKNKNCRRHSLYVDFSDVGWNDWIVAPPGYQAFYCHGDCPFPLADHLNSTNHAIVQTLVNSVNSSIPKACCVPTELSAISMLYLDEYDKVVLKNYQEMVVEGCGCR
modifications: 125I label by the chloramine-T method where used as tracer

Legend:
digit-removed BMP-2 = molecular target: T1, digit-removed BMP-2; test: DSS crosslinking on transfected COS-7 cells, SDS-PAGE
Excerpt: (§1) In this method, the bifunctional crosslinking reagent disuccinimidyl suberate (DSS) (Pierce Chemical, Rockford, Ill.) is used to covalently crosslink bound radiolabeled ligand to its receptor by reaction with free amino groups on lysine residues in the two proteins. Following the crosslinking, cellular proteins are separated by gel electrophoresis, and radioactive bands visualized. The labeled bands represent the receptor selectively "tagged" with the radiolabeled ligand. In this procedure, cells are transfected with pJT4-J159F as described in example 7, then seeded into 12 well plates at 670,000 cells/well. Media is changed after 24 hr. At 48 hr after electroporation, the cells are washed, equilibrated, and incubated with [^125I]-BMP-4 or [^125I]-DRBMP-2 and competing unlabeled ligands as described in this example for whole cell binding studies.
(§2) After completion of the 4 hour incubation with ligand, the cells are washed three times at 4° C. with 2 ml of binding buffer having the same composition as described above, except that no BSA is added. To each well is then added 1 ml of fresh BSA-free binding buffer, followed by freshly prepared DSS to a final concentration of 135 μM. After swirling gently to mix the DSS, the plates are incubated for exactly 15 minutes at 4° C. with gentle shaking. […]

[1] = molecular target: T2, bone morphogenetic protein 2; test: competition: 10 nM unlabelled BMP-2 greatly reduces the band of [125I]-BMP-4 or [125I]-DR-BMP-2 crosslinked to BRK-1
Excerpt: as §1, §2

[2] = molecular target: B2; test: saturation binding of [125I]-BMP-4 (10-1000 pM) on COS-7 cells transfected with BRK-1, nonspecific binding with 10 nM unlabelled BMP-4, LIGAND software
Procedure: For whole cell binding experiments, COS-7 cells are transfected with pJT4-J159F as described in example 7. After electroporation, cells are seeded in 12 well plates at 670,000 cells/ell. Media is changed after 24 hr, and binding experiments are carried out at 48 hr. At that time, cells are washed once with binding buffer (50 mM Hepes buffer, pH 7.4, 128 mM NaCl, 5 mM KCl, 5 mM MgSO_4, 1.2 mM CaCl_2, 2 mg/ml BSA), then equilibrated in the same buffer at 4° C. for 30 min with gentle shaking. The buffer is then aspirated, and to each well is added 500 µl of binding buffer (4° C.), containing [^125I]-BMP-4 tracer (100 pM), as well as varying concentrations of unlabeled BMP-2, BMP-4, or other unlabeled ligand, depending on the assay. For determination of nonspecific binding, BMP-2 is added to the binding buffer at a final concentration of 10 nM. […] The solubilized cells are then transferred to fresh tubes and counted in a Packard Model 5005 "COBRA" Gamma Counter (Packard Instrument Co., Downers Grove, Ill.).
In order to obtain a more quanitative characterization of binding to BRK-1, a saturation binding analysis is performed on COS-7 cells transfected with the cDNA for BRK-1, using the construct pJT4-J159F. Binding of [^125I]-BMP-4 is examined over a concentration range of 10–1000 pM, with nonspecific binding determined with 10 nM unlabeled BMP-4.

[3] = molecular target: B1; test: whole cell binding of [125I]-BMP-4 (100 pM), nonspecific binding with 10 nM BMP-2, COS-7 cells transfected with pJT4-J159F
Procedure: The detached cells are pelleted in a tabletop centrifuge, then resuspended in fresh media at a concentration of 6.25 ×10^6 cells/ml. The cell suspension (5 ×10^6 cells, 0.8 ml) is transferred to the cuvette from a BioRad "GENE PULSER" electroporation system (BioRad, Hercules, Calif.). The purified DNA plasmid (10 μg) is added to the cuvette, and the cells subjected to electoporation at 4.0 kV/cm, with a capacitance of 25 μFd. Cells are then plated and allowed to recover. Fresh media is supplied after 24 hr. At 48 hr, cells are ready to be tested for binding of BMP-4.
For whole cell binding experiments, COS-7 cells are transfected with pJT4-J159F as described in example 7. After electroporation, cells are seeded in 12 well plates at 670,000 cells/ell. Media is changed after 24 hr, and binding experiments are carried out at 48 hr. At that time, cells are washed once with binding buffer (50 mM Hepes buffer, pH 7.4, 128 mM NaCl, 5 mM KCl, 5 mM MgSO_4, 1.2 mM CaCl_2, 2 mg/ml BSA), then equilibrated in the same buffer at 4° C. for 30 min with gentle shaking. […] The solubilized cells are then transferred to fresh tubes and counted in a Packard Model 5005 "COBRA" Gamma Counter (Packard Instrument Co., Downers Grove, Ill.).

B1
binding result (digit-removed BMP-2): binds | binding result [1]: binds | Kd [2]: 0.5 nM

B2
specific binding relative to mock-transfected COS-7 cells [3]: 3 times

— patent publication US6248554, “DNA sequence coding for a BMP receptor” (The Procter & Gamble Company, dated 2001)
